The results in this text go back to publication PMC10584687.

For assay [1], the target named is GluA2 (modified calcium-permeable rat GluA2(Q) flip subunit, GluA2*) (rat). Description: cryo-EM structure; complex co-purified from HEK293S GnTI− cells transduced with GluA2–γ5 (no antagonists in the medium) by the streptavidin affinity tag and SEC in 150 mM NaCl, 20 mM Tris pH 8.0, 0.005% CHS, 0.05% digitonin, 1 mM βME; grids with 100 µM ZK, no ligand (apo), 100 µM ZK + 100 µM PMP, or 10 mM Glu.

Assay [2] deals with GluA2–γ5 fusion construct (N terminus of γ5 covalently linked to the C terminus of GluA2) (rat | mouse) (UniProt Q8VHW4).
The target in assay [3] is GluA2 (modified calcium-permeable rat GluA2(Q) flip subunit, GluA2*) (rat).
The target of assay [4] is GluA2–γ5 fusion construct (N terminus of γ5 covalently linked to the C terminus of GluA2) (rat | mouse) (UniProt Q8VHW4). The assay can be described thus: cryo-EM structure; complex co-purified from HEK293S GnTI− cells transduced with GluA2–γ5 (no antagonists in the medium) by the streptavidin affinity tag and SEC in 150 mM NaCl, 20 mM Tris pH 8.0, 0.005% CHS, 0.05% digitonin, 1 mM βME; grids with 100 µM ZK, no ligand (apo), 100 µM ZK + 100 µM PMP, or 10 mM Glu.

Assay [5] has the same target. The source holds these as a separate data set.
Assay [6] has as its target GluA2 (modified calcium-permeable rat GluA2(Q) flip subunit, GluA2*) (rat). The source holds these as a separate data set.
Assay [7] has as its target GluA2–γ5 fusion construct (N terminus of γ5 covalently linked to the C terminus of GluA2) (rat | mouse) (UniProt Q8VHW4). The source holds these as a separate data set.
Assay [8] deals with GluA2 (modified calcium-permeable rat GluA2(Q) flip subunit, GluA2*) (rat). This is another data set of the same source.

B1: TARP γ5 (C-terminally truncated mouse subunit, Cacng5, residues S2-E207) (domain or fragment)
chain: SACGRKALTLLSSVFAVCGLGLLGIAVSTDYWLYLEEGIILPQNQSTEVKMSLHSGLWRVCFLAGEERGRCFTIEYVMPMNSQMTSESTVNVLKMIRSATPFPLVSLFFMFIGFILSNIGHIRPHRTILAFVSGIFFILSGLSLVVGLVLYISSINDEMLNRTKDAETYFNYKYGWSFAFAAISFLLTESAGVMSVYLFMKRYTAE
For the molecule B1, the stoichiometry N (γ5 subunits per AMPAR tetramer) in assay [1] is 2.

B2: cornichon-2 (CNIH2), endogenous human (natural protein)
chain: MAFTFAAFCYMLTLVLCASLIFFVIWHIIAFDELRTDFKNPIDQGNPARARERLKNIERICCLLRKLVVPEYSIHGLFCLMFLCAAEWVTLGLNIPLLFYHLWRYFHRPADGSEVMYDAVSIMNADILNYCQKESWCKLAFYLLSFFYYLYSMVYTLVSF
B2: in assay [2], the deactivation time constant τDeact, whole-cell patch clamp, HEK293 cells cotransfected with GluA2–γ5 and wild-type human CNIH2, 2 ms 3 mM Glu, −60 mV was 4.21 ms; the desensitization time constant τDes, whole-cell patch clamp, HEK293 cells cotransfected with GluA2–γ5 and wild-type human CNIH2, 500 ms 3 mM Glu, −60 mV came to 14.8 ms. Moreover, in assay [3], the deactivation time constant τDeact, whole-cell patch clamp, HEK293 cells cotransfected with GluA2 and wild-type human CNIH2, 2 ms 3 mM Glu, −60 mV came out at 10.8 ms; the desensitization time constant τDes, whole-cell patch clamp, HEK293 cells cotransfected with GluA2 and wild-type human CNIH2, 500 ms 3 mM Glu, −60 mV amounted to 28 ms. Moreover, the stoichiometry N (CNIH2 subunits per GluA2–γ5 tetramer) in assay [4] is 2. Further, the time constant of recovery from desensitization τRecDes, two-pulse protocol, HEK293 cells cotransfected with GluA2–γ5 and wild-type human CNIH2 in assay [5] came out at 36.8 ms. Also, the time constant of recovery from desensitization τRecDes, two-pulse protocol, HEK293 cells cotransfected with GluA2 and wild-type human CNIH2 in assay [6] worked out at 21.7 ms. The fraction of nondesensitized channels ISS/IMax, whole-cell patch clamp, HEK293 cells cotransfected with GluA2–γ5 and wild-type human CNIH2 in assay [7] is 0.06. In assay [8], the fraction of nondesensitized channels ISS/IMax, whole-cell patch clamp, HEK293 cells cotransfected with GluA2 and wild-type human CNIH2 turned out to be 0.211.
